Laboratory results from patent US20180258175A1 (ABLEXIS, published 2018).
Where a chain is given by its changes, count along the chain named. Values belong to the binder of their own block, whether it stands above or below them.

Legend:
[1] = molecular target: T1, human CD115 extracellular domain (Sino Biological 10161-H08H) (human, UniProt P07333 20-517); assay: competition ELISA, competitor TMR 100A;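 further: clonal anti-huCD115 hybridoma supernatants tested for binding with the competitor antibody present, clones failing to bind are assigned to the competitor's epitope bin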
T1 construct: extracellular domain; bought recombinant protein; also called huCD115; hu-CD115

[2] = molecular target: T1, human CD115 extracellular domain (Sino …); assay: competition ELISA, competitor TMR 95A;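 further: clonal anti-huCD115 hybridoma supernatants tested for binding while a competitor mouse antibody is present, where failure to bind assigns them to that competitor's epitope bin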
[3] = molecular target: T1, human CD115 extracellular domain (Sino …); assay: competition ELISA, competitor TMR 35A;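 further: clonal hybridoma supernatant antibodies added to wells after the competitor mouse antibody, lost binding signal puts an antibody in that competitor's epitope bin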
[4] = molecular target: T1, human CD115 extracellular domain (Sino …); assay: competition ELISA, competitor TMR 44B;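 further: binding of antibodies from single-clone hybridoma supernatants to huCD115 measured with the competitor antibody present, a drop in signal meaning both share an epitope bin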
[5] = molecular target: T1, human CD115 extracellular domain (Sino …); assay: competition ELISA, competitor TMR 20A;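 further: epitope binning by ELISA, anti-huCD115 hybridoma supernatant antibodies tested for binding to huCD115 with the competitor antibody present, loss of binding placing them in the competitor's bin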
[6] = molecular target: T1, human CD115 extracellular domain (Sino …); assay: competition ELISA, competitor TMR 24A;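 further: clonal anti-huCD115 hybridoma supernatant antibodies bound with a competitor mouse antibody present, and failure to bind puts a clone in that competitor's epitope bin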
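Further: low signal means same epitope bin as the mouse competitor antibody.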

signal vs NO COMP=100 [1]: 110%
signal vs NO COMP=100 [2]: 15%
signal vs NO COMP=100 [3]: 110%
signal vs NO COMP=100 [4]: 41%
signal vs NO COMP=100 [5]: 110%
signal vs NO COMP=100 [6]: 27%
B1: CCK-461A (antibody, V domains shown)
VH: QVQLQESGPGLVKPSETLSLTCTVSGGSISSYYWTWIRQPPGKGLEWIGYISYSGGTNYNPSLKSRVTISVDTSKNQFSLKLSSVTAADTAVYYCARELGNYWGQGTLVTVSS
VL: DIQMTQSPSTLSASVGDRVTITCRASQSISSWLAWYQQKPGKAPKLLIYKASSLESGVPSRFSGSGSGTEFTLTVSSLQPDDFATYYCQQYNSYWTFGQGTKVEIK
notes: AlivaMab chimeric IgG, human kappa LC

signal vs NO COMP=100 [1]: 100%
signal vs NO COMP=100 [2]: 11%
signal vs NO COMP=100 [3]: 88%
signal vs NO COMP=100 [4]: 56%
signal vs NO COMP=100 [5]: 80%
signal vs NO COMP=100 [6]: 13%
B2: CCK-525A (antibody, V domains shown)
VH: QVQLVESGGGVVQPGRSLRLSCAASGFTFSSYGMHWVRQAPGKGLEWVAVIWYDGSIKYYADSVKGRFTISRDNSKNTLYLQMNSLRAEDTAVYYCARATYYYDSSGYYSNWFDPWGQGTLVTVSS
VL: DIQMTQSPSSVSASVGDRVTITCRASQGISSWLAWYQQKPGKAPKLLIYAASSLQSGVPSRFSGSGSGTDFTLTISSLQPEDFATYYCQQANTFPFTVGPGTKVDIK
notes: as for B1

signal vs NO COMP=100 [1]: 99%
signal vs NO COMP=100 [2]: 9%
signal vs NO COMP=100 [3]: 100%
signal vs NO COMP=100 [4]: 55%
signal vs NO COMP=100 [5]: 104%
signal vs NO COMP=100 [6]: 18%
B3: CCK-421A (antibody, V domains shown)
VH: QVQLQESGPGLVKPSETLSLTCTVTGGSISSYYWSWIRQPAGKGLEWIGRIYTSGSTNYNPSLKSRVTMSVDTSKNHFSLKLSSVTAADTAVYYCAREILVVVAATRTGGVFDIWGQGTMVTVSS
VL: DIQMTQSPSTLSASVGDRVTITCRASQSISSWLAWYQRKPGKAPKLLIYKASTLESGVPSRFSGSGSGTEFTLTISSLQPDDFATYYCQQFNSYWTFGQGTKVEIK
notes: as for B1

signal vs NO COMP=100 [1]: 87%
signal vs NO COMP=100 [2]: 20%
signal vs NO COMP=100 [3]: 82%
signal vs NO COMP=100 [4]: 10%
signal vs NO COMP=100 [5]: 70%
signal vs NO COMP=100 [6]: 39%
B4: CCK-516A (antibody, V domains shown)
VH: not shown
VL: DIVMTQTPLSLPVTPGEPASISCRSSQSLLDSDDGNTYLDWYLQKPGQSPQLLIYTLSYRASGVPDRFSGSGSGTDFTLKISRVEAEDVGVYYCMQRIEFPLTFGGGTKVEIK
notes: as for B1

signal vs NO COMP=100 [1]: 107%
signal vs NO COMP=100 [2]: 38%
signal vs NO COMP=100 [3]: 112%
signal vs NO COMP=100 [4]: 45%
signal vs NO COMP=100 [5]: 84%
signal vs NO COMP=100 [6]: 75%
B5: 429 (Table 4, bin 1C block) (antibody, V domains shown)
VH: QVQLEQSGAEVKRPGASVKVSCKASGYTFTGYYMHWVRQAPGQGLEWMGWINPNRGDTNYAQKFQGRVTMTRDTSISTAYMELSRLRSDDTAVYYCARDLEGGGPFDYWGQGTLVTVSS
VL: B4 VL with L102S, G106Q, K109R, V110L
notes: not tied

signal vs NO COMP=100 [1]: 103%
signal vs NO COMP=100 [2]: 42%
signal vs NO COMP=100 [3]: 75%
signal vs NO COMP=100 [4]: 4%
signal vs NO COMP=100 [5]: 84%
signal vs NO COMP=100 [6]: 53%
B6: CCK-514A (antibody, V domains shown)
VH: EVQLVESGGGLVKPGGSLRLSCAASGFTFSSYSMNWVRQAPGKGLEWVSSISSSSSYIYYADSVKGRFTISRDNAKNSLYLQMNSLRAEDTAVYYCARGGSYPYNWFDPWGQGTLVTVSS
VL: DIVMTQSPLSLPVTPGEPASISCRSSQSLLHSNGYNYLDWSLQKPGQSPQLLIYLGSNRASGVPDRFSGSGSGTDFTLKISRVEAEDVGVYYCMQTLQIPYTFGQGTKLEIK
notes: as for B1

signal vs NO COMP=100 [1]: 96%
signal vs NO COMP=100 [2]: 57%
signal vs NO COMP=100 [3]: 85%
signal vs NO COMP=100 [4]: 0%
signal vs NO COMP=100 [5]: 87%
signal vs NO COMP=100 [6]: 39%
B7: CCK-464A (antibody, V domains shown)
VH: EVQLVESGGGLVKPGGSLRLSCAASGFTFSSYNMNWVRQAPGKGLEWVSSISSSSTYIYYADSLKGRFTISRDNAMNSLYLQMSSLRAEDTAVYYCARDSGTYPYYYFGMDVWGQGTTVTVSS
VL: DIQLTQSPSFLSASVGDRVTITCRASQGISSYLAWYQQKPGKAPKLLIYAASTLQSGVPSRFSGSGSGTEFTLTISSLQPEDFATYYCQQLNTYPRTFGQGTKVEIK
notes: as for B1
